Laboratory results: US20130210709A1 (ANCHOR THERAPEUTICS, published 2013)
Square brackets hold non-standard residues; d marks the D form. Ends that are not written are not given here. * marks the point of attachment. Palmitoyl = CCCCCCCCCCCCCCCC(=O)*

target: T1, CXCR4 receptor (human, UniProt P61073 1-352); assay: cell-based or functional assay
T1 sequence (P61073 whole entry): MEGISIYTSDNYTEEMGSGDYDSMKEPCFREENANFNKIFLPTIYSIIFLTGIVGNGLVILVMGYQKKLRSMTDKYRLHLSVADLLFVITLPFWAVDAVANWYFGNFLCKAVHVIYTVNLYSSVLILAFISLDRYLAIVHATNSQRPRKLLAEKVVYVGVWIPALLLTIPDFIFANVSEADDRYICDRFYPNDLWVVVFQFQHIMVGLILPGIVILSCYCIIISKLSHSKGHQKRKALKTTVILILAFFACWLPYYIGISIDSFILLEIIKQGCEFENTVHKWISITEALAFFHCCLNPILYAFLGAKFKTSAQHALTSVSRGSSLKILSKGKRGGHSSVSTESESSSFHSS

Binder | IC50 (nM), calcium flux, CCRF-CEM
Palmitoyl-MGYQKKLRSMTDAYRL-NH2 (SMILES CCCCCCCCCCCCCCCC(=O)N[C@@H](CCSC)C(=O)NCC(=O)N[C@@H](Cc1ccc(O)cc1)C(=O)N[C@@H](CCC(N)=O)C(=O)N[C@@H](CCCCN)C(=O)N[C@@H](CCCCN)C(=O)N[C@@H](CC(C)C)C(=O)N[C@@H](CCCNC(=N)N)C(=O)N[C@@H](CO)C(=O)N[C@@H](CCSC)C(=O)N[C@H](C(=O)N[C@@H](CC(=O)O)C(=O)N[C@@H](C)C(=O)N[C@@H](Cc1ccc(O)cc1)C(=O)N[C@@H](CCCNC(=N)N)C(=O)N[C@@H](CC(C)C)C(N)=O)[C@@H](C)O) [CXCR4 i1 loop compound 150] | 313 nM
Palmitoyl-MGYQKKLRSMTAKYRL-NH2 (SMILES CCCCCCCCCCCCCCCC(=O)N[C@@H](CCSC)C(=O)NCC(=O)N[C@@H](Cc1ccc(O)cc1)C(=O)N[C@@H](CCC(N)=O)C(=O)N[C@@H](CCCCN)C(=O)N[C@@H](CCCCN)C(=O)N[C@@H](CC(C)C)C(=O)N[C@@H](CCCNC(=N)N)C(=O)N[C@@H](CO)C(=O)N[C@@H](CCSC)C(=O)N[C@H](C(=O)N[C@@H](C)C(=O)N[C@@H](CCCCN)C(=O)N[C@@H](Cc1ccc(O)cc1)C(=O)N[C@@H](CCCNC(=N)N)C(=O)N[C@@H](CC(C)C)C(N)=O)[C@@H](C)O) [CXCR4 i1 loop compound 149] | 126 nM
Palmitoyl-MGYQKKLRAMTDKYRL-NH2 (SMILES CCCCCCCCCCCCCCCC(=O)N[C@@H](CCSC)C(=O)NCC(=O)N[C@@H](Cc1ccc(O)cc1)C(=O)N[C@@H](CCC(N)=O)C(=O)N[C@@H](CCCCN)C(=O)N[C@@H](CCCCN)C(=O)N[C@@H](CC(C)C)C(=O)N[C@@H](CCCNC(=N)N)C(=O)N[C@@H](C)C(=O)N[C@@H](CCSC)C(=O)N[C@H](C(=O)N[C@@H](CC(=O)O)C(=O)N[C@@H](CCCCN)C(=O)N[C@@H](Cc1ccc(O)cc1)C(=O)N[C@@H](CCCNC(=N)N)C(=O)N[C@@H](CC(C)C)C(N)=O)[C@@H](C)O) [CXCR4 i1 loop compound 146] | 170 nM
Palmitoyl-MGYQKKLRSATDKYRL-NH2 (SMILES CCCCCCCCCCCCCCCC(=O)N[C@@H](CCSC)C(=O)NCC(=O)N[C@@H](Cc1ccc(O)cc1)C(=O)N[C@@H](CCC(N)=O)C(=O)N[C@@H](CCCCN)C(=O)N[C@@H](CCCCN)C(=O)N[C@@H](CC(C)C)C(=O)N[C@@H](CCCNC(=N)N)C(=O)N[C@@H](CO)C(=O)N[C@@H](C)C(=O)N[C@H](C(=O)N[C@@H](CC(=O)O)C(=O)N[C@@H](CCCCN)C(=O)N[C@@H](Cc1ccc(O)cc1)C(=O)N[C@@H](CCCNC(=N)N)C(=O)N[C@@H](CC(C)C)C(N)=O)[C@@H](C)O) [CXCR4 i1 loop compound 147] | 54 nM
Palmitoyl-AGYQKKLRSMTDKYRL-NH2 (SMILES CCCCCCCCCCCCCCCC(=O)N[C@@H](C)C(=O)NCC(=O)N[C@@H](Cc1ccc(O)cc1)C(=O)N[C@@H](CCC(N)=O)C(=O)N[C@@H](CCCCN)C(=O)N[C@@H](CCCCN)C(=O)N[C@@H](CC(C)C)C(=O)N[C@@H](CCCNC(=N)N)C(=O)N[C@@H](CO)C(=O)N[C@@H](CCSC)C(=O)N[C@H](C(=O)N[C@@H](CC(=O)O)C(=O)N[C@@H](CCCCN)C(=O)N[C@@H](Cc1ccc(O)cc1)C(=O)N[C@@H](CCCNC(=N)N)C(=O)N[C@@H](CC(C)C)C(N)=O)[C@@H](C)O) [CXCR4 i1 loop compound 129] | 197 nM
Palmitoyl-MGYQKKLRSMADKYRL-NH2 (SMILES CCCCCCCCCCCCCCCC(=O)N[C@@H](CCSC)C(=O)NCC(=O)N[C@@H](Cc1ccc(O)cc1)C(=O)N[C@@H](CCC(N)=O)C(=O)N[C@@H](CCCCN)C(=O)N[C@@H](CCCCN)C(=O)N[C@@H](CC(C)C)C(=O)N[C@@H](CCCNC(=N)N)C(=O)N[C@@H](CO)C(=O)N[C@@H](CCSC)C(=O)N[C@@H](C)C(=O)N[C@@H](CC(=O)O)C(=O)N[C@@H](CCCCN)C(=O)N[C@@H](Cc1ccc(O)cc1)C(=O)N[C@@H](CCCNC(=N)N)C(=O)N[C@@H](CC(C)C)C(N)=O) [CXCR4 i1 loop compound 148] | 298 nM
Palmitoyl-MGYQKKLRSMTDKYAL-NH2 (SMILES CCCCCCCCCCCCCCCC(=O)N[C@@H](CCSC)C(=O)NCC(=O)N[C@@H](Cc1ccc(O)cc1)C(=O)N[C@@H](CCC(N)=O)C(=O)N[C@@H](CCCCN)C(=O)N[C@@H](CCCCN)C(=O)N[C@@H](CC(C)C)C(=O)N[C@@H](CCCNC(=N)N)C(=O)N[C@@H](CO)C(=O)N[C@@H](CCSC)C(=O)N[C@H](C(=O)N[C@@H](CC(=O)O)C(=O)N[C@@H](CCCCN)C(=O)N[C@@H](Cc1ccc(O)cc1)C(=O)N[C@@H](C)C(=O)N[C@@H](CC(C)C)C(N)=O)[C@@H](C)O) [CXCR4 i1 loop compound 152] | > 10000 nM
Palmitoyl-MGYQKKLRSMTDKARL-NH2 (SMILES CCCCCCCCCCCCCCCC(=O)N[C@@H](CCSC)C(=O)NCC(=O)N[C@@H](Cc1ccc(O)cc1)C(=O)N[C@@H](CCC(N)=O)C(=O)N[C@@H](CCCCN)C(=O)N[C@@H](CCCCN)C(=O)N[C@@H](CC(C)C)C(=O)N[C@@H](CCCNC(=N)N)C(=O)N[C@@H](CO)C(=O)N[C@@H](CCSC)C(=O)N[C@H](C(=O)N[C@@H](CC(=O)O)C(=O)N[C@@H](CCCCN)C(=O)N[C@@H](C)C(=O)N[C@@H](CCCNC(=N)N)C(=O)N[C@@H](CC(C)C)C(N)=O)[C@@H](C)O) [CXCR4 i1 loop compound 151] | > 10000 nM

Next, values leading:

IC50 (nM), calcium flux, CCRF-CEM | Binder
> 10000 nM | Palmitoyl-MGYQKKLRSMTDKYR[dL]-NH2 [CXCR4 i1 loop compound 159]
5730 nM | Palmitoyl-MGYQKKLRSMTDKY[dR]L-NH2 [CXCR4 i1 loop compound 160]
> 10000 nM | Palmitoyl-MGYQKKLRSMTDKYRA-NH2 (SMILES CCCCCCCCCCCCCCCC(=O)N[C@@H](CCSC)C(=O)NCC(=O)N[C@@H](Cc1ccc(O)cc1)C(=O)N[C@@H](CCC(N)=O)C(=O)N[C@@H](CCCCN)C(=O)N[C@@H](CCCCN)C(=O)N[C@@H](CC(C)C)C(=O)N[C@@H](CCCNC(=N)N)C(=O)N[C@@H](CO)C(=O)N[C@@H](CCSC)C(=O)N[C@H](C(=O)N[C@@H](CC(=O)O)C(=O)N[C@@H](CCCCN)C(=O)N[C@@H](Cc1ccc(O)cc1)C(=O)N[C@@H](CCCNC(=N)N)C(=O)N[C@@H](C)C(N)=O)[C@@H](C)O) [CXCR4 i1 loop compound 153]
> 10000 nM | Palmitoyl-MGYQKKLRSMTDK[dY]RL-NH2 [CXCR4 i1 loop compound 161]

target: T1, CXCR4 receptor; assay: cell-based or functional assay; remark: another data set of the same source

AUC (% of vehicle), chemotaxis, CEM, 1.0 uM | Max (% of vehicle), chemotaxis, CEM, 1.0 uM | Peak Ratio, chemotaxis, CEM, 1.0 uM | Binder
45 % of vehicle | 64.5 % of vehicle | 0.2 | Palmitoyl-HSKGHQKRKALKTTV-NH2 (SMILES CCCCCCCCCCCCCCCC(=O)N[C@@H](Cc1c[nH]cn1)C(=O)N[C@@H](CO)C(=O)N[C@@H](CCCCN)C(=O)NCC(=O)N[C@@H](Cc1c[nH]cn1)C(=O)N[C@@H](CCC(N)=O)C(=O)N[C@@H](CCCCN)C(=O)N[C@@H](CCCNC(=N)N)C(=O)N[C@@H](CCCCN)C(=O)N[C@@H](C)C(=O)N[C@@H](CC(C)C)C(=O)N[C@@H](CCCCN)C(=O)N[C@H](C(=O)N[C@H](C(=O)N[C@H](C(N)=O)C(C)C)[C@@H](C)O)[C@@H](C)O) [CXCR4 i3 loop compound 99]
75.5 % of vehicle | 74.9 % of vehicle | 1 | Palmitoyl-SKLSHSKGHQKRKALK-NH2 (SMILES CCCCCCCCCCCCCCCC(=O)N[C@@H](CO)C(=O)N[C@@H](CCCCN)C(=O)N[C@@H](CC(C)C)C(=O)N[C@@H](CO)C(=O)N[C@@H](Cc1c[nH]cn1)C(=O)N[C@@H](CO)C(=O)N[C@@H](CCCCN)C(=O)NCC(=O)N[C@@H](Cc1c[nH]cn1)C(=O)N[C@@H](CCC(N)=O)C(=O)N[C@@H](CCCCN)C(=O)N[C@@H](CCCNC(=N)N)C(=O)N[C@@H](CCCCN)C(=O)N[C@@H](C)C(=O)N[C@@H](CC(C)C)C(=O)N[C@@H](CCCCN)C(N)=O) [CXCR4 i3 loop compound 101]
49.3 % of vehicle | 49.8 % of vehicle | 0.04 | Palmitoyl-HSKGHQKRKALKTTVI-NH2 (SMILES CCCCCCCCCCCCCCCC(=O)N[C@@H](Cc1c[nH]cn1)C(=O)N[C@@H](CO)C(=O)N[C@@H](CCCCN)C(=O)NCC(=O)N[C@@H](Cc1c[nH]cn1)C(=O)N[C@@H](CCC(N)=O)C(=O)N[C@@H](CCCCN)C(=O)N[C@@H](CCCNC(=N)N)C(=O)N[C@@H](CCCCN)C(=O)N[C@@H](C)C(=O)N[C@@H](CC(C)C)C(=O)N[C@@H](CCCCN)C(=O)N[C@H](C(=O)N[C@H](C(=O)N[C@H](C(=O)N[C@H](C(N)=O)[C@@H](C)CC)C(C)C)[C@@H](C)O)[C@@H](C)O) [CXCR4 i3 loop compound 100]
36.4 % of vehicle | 56.4 % of vehicle | 0.2 | Palmitoyl-IIISKLSHSKGHQKRKALKT (not fully specified (C-terminus); also: dual lipid, second lipid position not given here) [CXCR4 i3 loop compound 104]
26.3 % of vehicle | 24.4 % of vehicle | 1 | IIISKLSHSKGHQKRKALKT-NH2 (not fully specified (N-terminus); also: dual lipid, backbone lipid not given here) [CXCR4 i3 loop compound 103]
23.8 % of vehicle | 42.9 % of vehicle | 0.2 | KLSHSKGHQKRKALKTTVIL-NH2 (not fully specified (N-terminus); also: dual lipid, backbone lipid not given here) [CXCR4 i3 loop compound 105]
